# Measured values published in PMC6532428 (Circulation, 2019).
# B1: GST-RhoE recombinant protein (natural protein, UniProt P61587 1-244, looked up)
# chain: MKERRASQKLSSKSIMDPNQNVKCKIVVVGDSQCGKTALLHVFAKDCFPENYVPTVFENYTASFEIDTQRIELSLWDTSGSPYYDNVRPLSYPDSDAVLICFDISRPETLDSVLKKWKGEIQEFCPNTKMLLVGCKSDLRTDVSTLVELSNHRQTPVSYDQGANMAKQIGAATYIECSALQSENSVRDIFHVATLACVNKTNKNVKRNKSQRATKRISHMPSRPELSAVATDLRKDKAKSCTVM
# Target: His-p65 fusion protein (UniProt Q04206 1-551)
# Test: pull-down
# Sequence of His-p65 fusion protein (Q04206 whole entry, the tested form may be a part): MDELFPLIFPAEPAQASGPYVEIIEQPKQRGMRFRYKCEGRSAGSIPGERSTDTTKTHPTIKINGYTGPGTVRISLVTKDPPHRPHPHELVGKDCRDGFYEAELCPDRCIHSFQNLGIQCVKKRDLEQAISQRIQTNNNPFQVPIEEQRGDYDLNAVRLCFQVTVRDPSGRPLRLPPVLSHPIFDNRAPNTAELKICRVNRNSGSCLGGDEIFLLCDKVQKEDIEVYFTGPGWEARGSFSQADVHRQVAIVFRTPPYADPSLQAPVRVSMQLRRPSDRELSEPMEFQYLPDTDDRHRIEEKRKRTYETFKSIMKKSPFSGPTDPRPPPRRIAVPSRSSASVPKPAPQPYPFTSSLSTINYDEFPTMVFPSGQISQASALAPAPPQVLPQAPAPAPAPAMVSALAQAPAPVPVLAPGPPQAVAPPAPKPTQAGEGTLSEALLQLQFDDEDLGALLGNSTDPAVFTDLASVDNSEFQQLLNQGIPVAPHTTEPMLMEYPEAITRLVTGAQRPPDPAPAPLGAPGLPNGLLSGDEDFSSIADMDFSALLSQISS
binder,measurement,value
B1,binding result,binds
